Results on 1 substance are retold here after article PMC3691308.

The target of experiment [1] is Leishmania braziliensis Hsp90 (LbHsp90) (Leishmania braziliensis).
For experiment [2] the target is unchanged. Description: ITC; LbAha1 (130–150 µM) injected into LbHsp90 (around 5.5 µM, as dimers); 40 mM HEPES pH 7.5, 5 mM KCl; 20°C; One Set of Sites fit; apparent enthalpy.

“Leishmania braziliensis Activator of Hsp90 ATPase 1 (LbAha1) (natural protein)” displayed a stimulation of LbHsp90 ATPase activity (1 µM dimer, 0.5 mM ATP, 37°C) by increasing LbAha1 (0–20 µM in the methods, 0–16 µM in the legend); relative ATPase activity in experiment [1] of 10 fold. Further, in experiment [2], the Kd came out at 1000 nM, the dH was -18000 cal/mol and the stoichiometry N (LbAha1 per LbHsp90 dimer) is 2.
